Legend:
[1] = molecular target: T1, PDL1-Fc fusion protein (human, UniProt Q9NZQ7 19-238, limits assumed); experiment: ELISA, plate coated with PDL1-Fc 0.5 ug/well, detection anti-his-HRP, OD405, 4-parameter fit (Plot1; same fit values as in Figure 2)
T1 construct: Transiently expressed in HEK293 and used as the plate coat in the ELISAs; not shown: Fc part
Description: (§1) The PDL1-Fc fusion protein was transiently expressed by HEK293 and purified by nickel column affinity chromatography. […] After washing, the anti-his horseradish peroxidase labeled antibody was added and incubated at room temperature for 1 hour. After washing, the developing solution was added, and the absorption value was read at wavelength of 405 nm. Application software SotfMaxPro v5.4 is used for data processing and mapping analysis.

[2] = molecular target: PD-L1 target protein (Biacore ligand) (UniProt Q9NZQ7 19-238, limits assumed); experiment: SPR (Biacore T200), 25 C, 109 as analyte at 3.125-200 ng/ml
Sequence of PD-L1 target protein (Biacore ligand) (Q9NZQ7 19-238 limits assumed): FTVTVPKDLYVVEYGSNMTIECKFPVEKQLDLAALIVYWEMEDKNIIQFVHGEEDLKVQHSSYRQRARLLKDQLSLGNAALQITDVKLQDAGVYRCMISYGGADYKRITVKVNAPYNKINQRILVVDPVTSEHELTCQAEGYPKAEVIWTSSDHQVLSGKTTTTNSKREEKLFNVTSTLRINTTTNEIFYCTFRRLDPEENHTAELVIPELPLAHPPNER
Description: The experimental temperature of Biacore was 25° C. and the injection flow rate was 50 μl/min. The analyte was diluted with the HBS-EP+ buffer to a certain concentration, and was allowed to flow through the blank reference channel and the activated channel in turn. The signal value generated on the blank reference channel reflects the non-specific adsorption of the analyte on the chip, and the signal value generated on the activated channel reflects the specific binding between the analyte and the ligand. The analyte was introduced for 300 s, and then the HBS-EP+ buffer was introduced for 180 s to dissociate the analyte from the ligand. […] Different concentrations of analytes are repeatedly introduced and dissociated.

[3] = molecular target: T1, PDL1-Fc fusion protein; experiment: ELISA, plate coated with PDL1-Fc 0.5 ug/well, detection anti-his-HRP, OD405, 4-parameter fit (Plot2)
Description: as §1

T1 sequence (Q9NZQ7 19-238 limits assumed): as above

B1: 109-chis (VHH)
VHH: QVQLQESGGGSVQAGGSLRLSCTASGFSLDDSDMGWYRQARGNVCQLVSTIASDRSTYYTPSVKGRFTISHDRAKNTIYLQMNSLKPEDTAVYYCAAAPRLAYTTAMTCEGDFAYWGQGTQVTVSS
EC50 [1]: 2.89 ng/mL

B2: 109 heavy-chain single domain antibody (VHH)
VHH: QVQLQESGGGSVQAGGSLRLSCTASGFSLDDSDMGWYRQARGNVCQLVSTIASDRSTYYTPSVKGRFTISHDRAKNTIYLQMNSLKPEDTAVYYCAAAPRLAYTTAMTCEGDFAYWGQGTQVTVSS
notes: Untagged form
Kd [2]: 1.73 nM | koff [2]: 0.000438 s⁻¹ | kon [2]: 253000 M⁻¹ s⁻¹

B3: ^69,71Ga-NOTA-109-chis (VHH)
VHH: QVQLQESGGGSVQAGGSLRLSCTASGFSLDDSDMGWYRQARGNVCQLVSTIASDRSTYYTPSVKGRFTISHDRAKNTIYLQMNSLKPEDTAVYYCAAAPRLAYTTAMTCEGDFAYWGQGTQVTVSS
modifications: one or two NOTA groups (from p-SCN-Bn-NOTA) conjugated per molecule, each chelating ^69,71Ga; conjugated lysines not assigned
notes: also called chelated products of PD-L1 single domain antibody protein
EC50 [3]: 3.62 ng/mL
